From article PMC6405930, “Conservation of the Amyloid Interactome Across Diverse Fibrillar Structures” (Scientific Reports, 2019)

B1: EGF-containing fibulin-like extracellular matrix protein 1: CSF protein bound to fibrils (protein, UniProt Q12805 18-493, looked up)
EGF-containing fibulin-like …: QDTEETITYTQCTDGYEWDPVRQQCKDIDECDIVPDACKGGMKCVNHYGGYLCLPKTAQIIVNNEQPQQETQPAEGTSGATTGVVAASSMATSGVLPGGGFVASAAAVAGPEMQTGRNNFVIRRNPADPQRIPSNPSHRIQCAAGYEQSEHNVCQDIDECTAGTHNCRADQVCINLRGSFACQCPPGYQKRGEQCVDIDECTIPPYCHQRCVNTPGSFYCQCSPGFQLAANNYTCVDINECDASNQCAQQCYNILGSFICQCNQGYELSSDRLNCEDIDECRTSSYLCQYQCVNEPGKFSCMCPQGYQVVRSRTCQDINECETTNECREDEMCWNYHGGFRCYPRNPCQDPYILTPENRCVCPVSNAMCRELPQSIVYKYMSIRSDRSVPSDIFQIQATTIYANTINTFRIKSGNENGEFYLRQTSPVSAMLVLVKSLSGPREHIVDLEMLTVSSIGTFRTSSVLRLTIIVGPFSF
B2: Mimecan: CSF protein bound to fibrils (protein, UniProt P20774 21-298, looked up)
Mimecan: PPTQQDSRIIYDYGTDNFEESIFSQDYEDKYLDGKNIKEKETVIIPNEKSLQLQKDEAITPLPPKKENDEMPTCLLCVCLSGSVYCEEVDIDAVPPLPKESAYLYARFNKIKKLTAKDFADIPNLRRLDFTGNLIEDIEDGTFSKLSLLEELSLAENQLLKLPVLPPKLTLFNAKYNKIKSRGIKANAFKKLNNLTFLYLDHNALESVPLNLPESLRVIHLQFNNIASITDDTFCKANDTSYIRDRIEEIRLEGNPIVLGKHPNSFICLKRLPIGSYF
B3: SPARC-like protein 1: CSF protein bound to fibrils (protein, UniProt Q14515 17-664, looked up)
SPARC-like protein 1: IPTNARLLSDHSKPTAETVAPDNTAIPSLRAEAEENEKETAVSTEDDSHHKAEKSSVLKSKEESHEQSAEQGKSSSQELGLKDQEDSDGHLSVNLEYAPTEGTLDIKEDMSEPQEKKLSENTDFLAPGVSSFTDSNQQESITKREENQEQPRNYSHHQLNRSSKHSQGLRDQGNQEQDPNISNGEEEEEKEPGEVGTHNDNQERKTELPREHANSKQEEDNTQSDDILEESDQPTQVSKMQEDEFDQGNQEQEDNSNAEMEEENASNVNKHIQETEWQSQEGKTGLEAISNHKETEEKTVSEALLMEPTDDGNTTPRNHGVDDDGDDDGDDGGTDGPRHSASDDYFIPSQAFLEAERAQSIAYHLKIEEQREKVHENENIGTTEPGEHQEAKKAENSSNEEETSSEGNMRVHAVDSCMSFQCKRGHICKADQQGKPHCVCQDPVTCPPTKPLDQVCGTDNQTYASSCHLFATKCRLEGTKKGHQLQLDYFGACKSIPTCTDFEVIQFPLRMRDWLKNILMQLYEANSEHAGYLNEKQRNKVKKIYLDEKRLLAGDHPIDLLLRDFKKNYHMYVYPVHWQFSELDQHPMDRVLTHSELAPLRASLVPMEHCITRFFEECDPNKDKHITLKEWGHCFGIKEEDIDENLLF
B4: Vitamin D-binding protein: CSF protein bound to fibrils (protein, UniProt P02774 17-474, looked up)
Vitamin D-binding protein: LERGRDYEKNKVCKEFSHLGKEDFTSLSLVLYSRKFPSGTFEQVSQLVKEVVSLTEACCAEGADPDCYDTRTSALSAKSCESNSPFPVHPGTAECCTKEGLERKLCMAALKHQPQEFPTYVEPTNDEICEAFRKDPKEYANQFMWEYSTNYGQAPLSLLVSYTKSYLSMVGSCCTSASPTVCFLKERLQLKHLSLLTTLSNRVCSQYAAYGEKKSRLSNLIKLAQKVPTADLEDVLPLAEDITNILSKCCESASEDCMAKELPEHTVKLCDNLSTKNSKFEDCCQEKTAMDVFVCTYFMPAAQLPELPDVELPTNKDVCDPGNTKVMDKYTFELSRRTHLPEVFLSKVLEPTLKSLGECCDVEDSTTCFNAKGPLLKKELSSFIDKGQELCADYSENTFTEYKKKLAERLKAKLPDATPTELAKLVNKHSDFASNCCSINSPPLYCDSEIDAELKNIL

biological target: T1, glucagon fibrils (Homo sapiens, UniProt P01275); test: Fibril incubation with CSF, quantitative MS/MS of bound proteins; type: binding; settings: 4:1 w/w CSF protein:fibril
T1 construct: fibrils of the peptide hormone glucagon
Description: (§1) Plasma and CSF solutions were centrifuged (40,000 g, 20 min) to remove any aggregates. The protein concentration was determined using 280 nm absorbance assuming 1 Abs = 1 mg/mL. […] Control samples (without fibril material) were prepared similarly. All samples were incubated at room temperature for one hour under gentle agitation. Fibrils and fibril-bound proteins were pelleted by centrifugation at 17,000 g for 30 minutes. The supernatant (175 μL) was removed and the aggregate was re-suspended in 175 μL PBS and pelleted again before further preparation for gel analysis and spin-filter assisted digest for quantitative MS/MS.
(§2) The fibril-protein pellets were transferred to spin-filters (0.22 μm), washed twice in PBS (100 μL) and once in 1 M NaCl (100 μL). The fibrils and fibril-bound proteins were dissolved by one-hour incubation in 100 μL 6 M guanidinium chloride followed by elution from the spin-filter. The eluted proteins were loaded onto a 3 kDa MWCO filter unit for filter-assisted unfolding, reduction, alkylation, and trypsin digestion. In brief, samples were washed twice in 8 M urea, once in 8 M urea with 50 mM DTT, once in 8 M urea with 50 mM iodoaceteamide, and twice in 8 M Urea. The filter units were dried by centrifugation (14,000 g in 30 minutes) after every addition. Trypsin digestion was carried out with 0.25 μg sequencing grade trypsin from Sigma Aldrich in 50 mM ammonium bicarbonate overnight at 37 °C. The tryptic peptides were collected by centrifugation, acidified with TFA (0.1%) and micro-purified using POROS R2 column material (Applied Biosystems) packed in P200 pipette tips (Sarstedt).
(§3) LC-MS/MS analyses were performed on an EASY-nLC II system (Thermo Fisher Scientific) connected to a TripleTOF 5600+ mass spectrometer (Sciex) equipped with a NanoSpray III source (Sciex) and operated under Analyst TF 1.6.0 control.
(§4) The micro-purified tryptic peptides were dissolved in 0.1% formic acid, injected and trapped on an in-house packed trap column (2 cm × 100 μm I.D) with RP ReproSil-Pur C18-AQ 3 μm resin (Dr. Maisch GmbH). Peptides were eluted from the trap column and separated on a 15 cm analytical column (75 μm i.d.) packed in-house in a pulled emitter with RP ReproSil-Pur C18-AQ 3 μm resin (Dr. Maisch GmbH). Elution from the analytical column was performed with a linear gradient from 5% to 35% phase B (90% acetonitrile with 0.1% formic acid) over 20 min for protein identification and 50 min for quantitative analysis, respectively.
(§5) All samples were analysed three times, yielding nine MS/MS experiments for each fibril for both plasma and CSF. For the area-based extracted ion chromatogram (XIC) quantification, the acquisition method was set up as an information-dependent acquisition (IDA) experiment collecting up to 25 MS/MS spectra in each 1.6 sec cycle using an exclusion window of 6 sec.
(§6) XIC quantification was based on the average ion intensity of the three most abundant peptides for each protein. Only proteins quantified in at least four out of nine MS/MS experiments per fibril were included in the quantification. The total ion scores were visualized after grouping the proteins according to function (Figure S11).
(§7) For each MS/MS experiment, the ion intensities of the individual proteins were normalized to the total ion intensity of that MS/MS experiment to achieve a relative protein composition. The contribution of each protein was averaged over all nine MS/MS experiments (Tables 1 and 2).

T1 sequence (P01275 53-81 limits assumed): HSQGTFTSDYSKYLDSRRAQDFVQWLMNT

Molecule | Relative composition of CSF proteins bound: Glucagon
B1 | 0.2 ± 0.1 % of total protein
B2 | 0.2 ± 0.1 % of total protein
B3 | 0.4 ± 0.1 % of total protein
B4 | 0.8 ± 0.1 % of total protein

tested on: T2, Ab2 fibrils; test: as above; type: binding, human; settings: 4:1 w/w CSF protein:fibril
T2 construct: Two structurally distinct fibrils of the Aβ(1–40) peptide associated with AD
Description: as §1, §2, §3, §4, §5, §6, §7

Molecule | Relative composition of CSF proteins bound: Ab2
B1 | 1.0 ± 0.3 % of total protein
B2 | 0.6 ± 0.2 % of total protein
B3 | 1.4 ± 0.0 % of total protein
B4 | 1.1 ± 0.0 % of total protein

tested on: T3, FAS4-AD aggregates; test: as above; type: binding, human; parameters: key to Identification status of CSF protein bound: FAS4-AD: *: Identified, but not quantified; —: Not identified in any of the samples; settings: symbol cells
T3 construct: aggregates of a mutated version of the FAS1-4 domain of TGFBIp
Description: as §1, §2, §3, §4, §5, §6, §7

Molecule | Identification status of CSF protein bound: FAS4-AD
B1 | —
B2 | *
B3 | —
B4 | —

biological target: T4, C-36 fibrils (Homo sapiens, UniProt P01009); test: as above; type: binding; settings: 4:1 w/w CSF protein:fibril
T4 construct: the 36 residue C-terminal fragment of α1-antitrypsin (C-36)
Description: as §1, §2, §3, §4, §5, §6, §7

T4 sequence (P01009 383-418 limits assumed): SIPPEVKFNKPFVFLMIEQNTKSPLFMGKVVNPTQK

Molecule | Relative composition of CSF proteins bound: C-36
B1 | 0.7 ± 0.1 % of total protein
B2 | 0.4 ± 0.1 % of total protein
B3 | 0.8 ± 0.4 % of total protein
B4 | 1.4 ± 0.8 % of total protein

tested on: T5, Ab1 fibrils; test: as above; type: binding, human; settings: 4:1 w/w CSF protein:fibril
T5 construct: Synthetic amyloid β peptide 1–40 was purchased from Caslo Aps (Lyngby, Denmark); purchased Caslo Aps (Lyngby, Denmark); host or cells: synthetic peptide
Description: as §1, §2, §3, §4, §5, §6, §7

Molecule | Relative composition of CSF proteins bound: Ab1
B1 | 0.6 ± 0.2 % of total protein
B2 | 0.5 ± 0.0 % of total protein
B3 | 1.2 ± 0.1 % of total protein
B4 | 0.7 ± 0.0 % of total protein

biological target: αSN fibrils (Homo sapiens, UniProt P37840); test: as above; type: binding; parameters: key to Identification status of CSF protein bound: αSN: *: Identified, but not quantified; —: Not identified in any of the samples; settings: 4:1 w/w CSF protein:fibril
Description: as §1, §2, §3, §4, §5, §6, §7

Molecule | Relative composition of CSF proteins bound: αSN
B2 | 2.1 ± 0.9 % of total protein

same assay, conditions: symbol cells

Molecule | Identification status of CSF protein bound: αSN
B1 | *
B3 | *
B4 | —
